{"source": "paper PMC3519385", "about": "(Structure (London, England : 1993), 2012)", "note": "Values joined by “and” are separate entries in the source; they are usually repeats but may differ in a detail not shown here. Equal entries are not always repeated."}
{"target": "the molecule itself", "assay": "SEC-MALS"}
{"binder": "DSLDDADALASMLISWYMSGYHTGYYMGFRQNQKEGRCSHSLN (domain or fragment, human, UniProt Q16637 252-294, looked up)", "note": "[MBP-YG^252–294 G261A]", "stoichiometry N": "≥ 4"}
{"binder": "DSLDDADALGSMLISWYMSGYHTGYYMGFRQAQKEGRCSHSLN (domain or fragment, human, UniProt Q16637 252-294, looked up)", "note": "[MBP-YG^252–294 N283A]", "stoichiometry N": "≥ 4"}
{"binder": "DSLDDADALGSMLISWYMSGYHTGYYMAFRQNQKEGRCSHSLN (domain or fragment, human, UniProt Q16637 252-294, looked up)", "note": "[MBP-YG^252–294 G279A]", "stoichiometry N": "≥ 4"}
{"binder": "DSLDDADALGSMLISWYMAGYHTGYYMGFRQNQKEGRCSHSLN (domain or fragment, human, UniProt Q16637 252-294, looked up)", "note": "[MBP-YG^252–294 S270A]", "stoichiometry N": "≥ 4"}
{"target": "the molecule itself", "assay": "SEC-MALS", "remark": "another data set of the same source"}
{"binder": "DSLDDADALGSMLISWYMSGYHTGYYMCFRQNQKEGRCSHSLN (domain or fragment, human, UniProt Q16637 252-294, looked up)", "note": "[MBP-YG^252–294 G279C]", "stoichiometry N": "≥ 4"}
{"binder": "DSLDDADALGSMLISWYMSGYHIGYYMGFRQNQKEGRCSHSLN (domain or fragment, human, UniProt Q16637 252-294, looked up)", "note": "[MBP-YG^252–294 T274I]", "stoichiometry N": 4}
{"binder": "DSLDDADALGGMLISWYMSGYHTGYYMGFRQNQKEGRCSHSLN (domain or fragment, human, UniProt Q16637 252-294, looked up)", "note": "[MBP-YG^252–294 S262G]", "stoichiometry N": 4}
{"binder": "DSLDDADALGSMLISWYMSGYHTGYYMGFRQNQKEGRCSHSLN (domain or fragment, human, UniProt Q16637 252-294, looked up)", "note": "[MBP-YG^252–294]", "stoichiometry N": 4}
{"binder": "DSLDDADALGSMLISWYMSGYRTGYYMGFRQNQKEGRCSHSLN (domain or fragment, human, UniProt Q16637 252-294, looked up)", "note": "[MBP-YG^252–294 H273R]", "stoichiometry N": 4}
{"binder": "DSLDDADALGIMLISWYMSGYHTGYYMGFRQNQKEGRCSHSLN (domain or fragment, human, UniProt Q16637 252-294, looked up)", "note": "[MBP-YG^252–294 S262I]", "stoichiometry N": "≥ 4"}
{"target": "T1, Gemin2 (UniProt O14893 1-280)", "T1 sequence (looked up)": "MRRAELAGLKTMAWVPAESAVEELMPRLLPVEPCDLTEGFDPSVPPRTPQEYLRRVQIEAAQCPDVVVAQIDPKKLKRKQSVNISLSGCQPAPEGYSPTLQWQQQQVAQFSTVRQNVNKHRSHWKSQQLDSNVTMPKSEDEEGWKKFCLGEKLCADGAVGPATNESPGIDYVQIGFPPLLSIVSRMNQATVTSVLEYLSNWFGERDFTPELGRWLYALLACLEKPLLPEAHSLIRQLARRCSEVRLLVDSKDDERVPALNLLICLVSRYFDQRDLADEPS", "assay": "co-purification"}
{"binder": "SMN Δexon5 (SMNΔ5) (natural protein, human, UniProt Q16637-2 1-262, looked up) MAMSSGGSGGGVPEQEDSVLFRRGTGQSDDSDIWDDTALIKAYDKAVASFKHALKNGDICETSGKPKTTPKRKPAKKNKSQKKNTAASLQQWKVGDKCSAIWSEDGCIYPATIASIDFKRETCVVVYTGYGNREEQNLSDLLSPICEVANNIEQNAQENENESQVSTDESENSRSPGNKSDNIKPKSAPWNSFLPPPPPMPGPRLGPGKIIPPPPPICPDSLDDADALGSMLISWYMSGYHTGYYMGFRQNQKEGRCSHSLN", "stoichiometry N": 1}
{"target": "the molecule itself", "assay": "not given"}
{"binder": "MBP-SMN^229–294 (domain or fragment, human, UniProt Q16637 229-294, looked up) LSCWLPPFPSGPPIIPPPPPICPDSLDDADALGSMLISWYMSGYHTGYYMGFRQNQKEGRCSHSLN", "stoichiometry N": "4 and 8"}
{"binder": "MLISWYMSGYHTGYYMGFRQNQKEGRCSHSLN (domain or fragment, human, UniProt Q16637 263-294, looked up)", "note": "[MBP-YG^263–294]", "stoichiometry N": 2}
